According to publication PMC4603552:
Like-named read-outs stand apart in the source and are kept apart here.

Substance	other (SUMOylation at K65)	other (SUMOylation at K160)
PML (PML-IV): K65R (FLAG-PML-IV-GFP, CHO-K1)	decreases	
PML (PML-IV): K160R (FLAG-PML-IV-GFP, CHO-K1)		decreases
PML (PML-IV): K65R in FLAG-PML-IV (aa 49-633)	decreases	
